Measurements: patent US20240218062A1 (DEVELOPMENT CENTER FOR BIOTECHNOLOGY, published 2024)

How the values were obtained:
[1] = target: NTSR1 linear L2-biotin protein (human) (UniProt P30989); assay: ELISA titration on NTSR1, anti-human IgG-HRP, OD450 minus OD650
NTSR1 protein = NTSR1 protein (UniProt P30989 1-418, limits assumed); assay: SPR, Biacore T200, NTSR1 protein on CM5 chip, multi-cycle kinetics, 25 C
Description: To know the binding kinetics differences among individual anti-NTSR1 antibodies, surface plasmon resonance (SPR) measurement with BIACORE™ T200 (CYTIVA® Inc.) was used as previously described (Karlsson & Falt, (1997) J. Immunol Methods 200:121-133). Carboxymethylated dextran biosensor chips (CM5, CYTIVA® Inc.) were activated with N-ethyl-N′-(3-dimethylaminopropyl)-carbodiimide hydrochloride (EDC) and N-hydroxysuccinimide (NHS) according to the supplier's instructions. NTSR1 protein was diluted with 10 mM sodium acetate, pH 4.0, into 5 μg/ml before injection at a flow rate of 10 μL/minute to achieve approximately 1500 response units (RU) of coupled protein followed by the injection of 1 M ethanolamine to block unreacted groups. For kinetics measurements, two-fold serial dilutions of anti-NTSR1 mAb (0.3125 nM to 40 nM) were injected in HBS-EP+BIACORET™ running buffer provided by the manufacturer (CYTIVA® Inc.) at 25° C. at a flow rate of 30 μL/min, and binding responses on the NTSR1 protein were corrected by subtraction of responses on a blank flow cell. Association rates (kₒₙ or Kₐ) and dissociation rates (koff or Kd) were calculated using a simple one-to-one Langmuir binding model with separate fittings of kₒₙ and koff. (CYTIVA® BIACORET™ Insight Evaluation Software).

NTSR1 on FaDu cells [2] = target: T1, NTSR1 on FaDu cells (human, UniProt P30989 1-418); assay: flow cytometry on FaDu cells (internalization assay), 10 µg/mL ADC on ice for 60 min, anti-human IgG PE [left panel (Trimannosyl anti-NTSR1 ADC]
T1 construct: whole, on cells; Endogenous NTSR1 on the human FaDu cell line; also called NTSR1 expressing cells, FaDu
Description: FaDu cells were trypsinized, and then harvested and resuspended in FAC buffer. Controls: secondary Ab anti-human IgG PE (1:200) was added to the FaDu cells. The cells were incubated at 4° C. for time intervals of 0, 0.5, 2, 5 and 24 hours, and then washed by 1 mL of FACS buffer. The supernatant was discarded. Testing groups: FaDu cells were pre-incubated with 10 μg/mL ADCs of trimannosyl and anti-NTSR1 antibodies αNTSR1 (AKT2), αNTSR1 (AKT2 Hu/Hu) and αNTSR1 (AKT2 Hu/Hd) in FACS buffer on ice for 60 min, washed three times with FACS buffer, and then incubated at 37° C. for time intervals of 0, 0.5, 2, 5 and 24 hours.

[3] = target: NTSR1 linear L2-biotin protein (human) (UniProt P30989); assay: ELISA on coated NTSR1 linear L2-biotin protein, non-linear regression
[4] = target: NTSR1 linear L2-biotin protein (human) (UniProt P30989); assay: ELISA titration, plate coated with NTSR1 linear L2-biotin protein, anti-human IgG-HRP
NTSR1 on FaDu cells [5] = target: T1, NTSR1 on FaDu cells; assay: flow cytometry on FaDu cells, antibody at 10 ug/ml
Description: (§1) Anti-NTSR1 antibodies were used to detect cells that express NTSR1 on the cell surfaces, for example using FACS. NTSR1 expressing cells, FaDu, were harvested and re-suspended in 5% PBS/FBS buffer. The cells (1×10⁵) were incubated with anti-NTSR1 antibody (1-10 μg/ml) or negative control, at 4° C. for 1 hr, and then stained with goat anti-human IgG FITC conjugate ( 1/1000) at 4° C. for 1 hr. For each assay, two additional controls were prepared; one without primary antibody and the other one with absence of any antibody. All treated samples were analyzed with […]™ (BECTON DICKINSON®) and the results were processed by […]™ software (BECTON DICKINSON®).

NTSR1 on FaDu cells [6] = target: T1, NTSR1 on FaDu cells; assay: flow cytometry on FaDu cells, antibody at 1 ug/mL
Description: as §1

T1 sequence (P30989 whole entry): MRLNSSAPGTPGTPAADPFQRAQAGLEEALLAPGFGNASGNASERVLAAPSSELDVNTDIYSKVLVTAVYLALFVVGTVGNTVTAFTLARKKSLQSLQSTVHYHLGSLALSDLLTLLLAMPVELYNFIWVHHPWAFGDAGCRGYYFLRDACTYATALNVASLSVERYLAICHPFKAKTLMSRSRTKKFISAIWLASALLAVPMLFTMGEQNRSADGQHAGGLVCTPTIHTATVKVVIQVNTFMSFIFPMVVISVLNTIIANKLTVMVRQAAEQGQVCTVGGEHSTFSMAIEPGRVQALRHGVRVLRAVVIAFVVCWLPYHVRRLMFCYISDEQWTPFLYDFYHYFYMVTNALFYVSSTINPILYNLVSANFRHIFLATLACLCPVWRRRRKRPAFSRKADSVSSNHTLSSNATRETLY
Chain of NTSR1 protein (P30989 whole entry): as above

Row | EC50 (read off the curve) [1] [nM] | Kd (NTSR1 protein) [nM] | koff (NTSR1 protein) [s⁻¹] | kon (NTSR1 protein) [M⁻¹ s⁻¹] | binding result (NTSR1 on FaDu cells [2]) | % Flow binding (10 ug/ml) (NTSR1 on FaDu cells [5]) [%] | % Flow binding (1 ug/mL) (NTSR1 on FaDu cells [6]) [%] | Binder | other results
1 |  |  |  |  |  | 91 | 31 | mouse-human chimera antibody 7C3 MM (antibody, V domains shown, Mouse 7C3 variable domains sub-cloned into the human Fc chimera expression vectors pTCAEDH and pTCAEDL; The humanized plasmids are named IgG1 and Kappa; also called m7C3; mAb 7C3 MM) VH: QVQLQQPGSVLVRPGDSVMLSCKASGYTFTSSWIHWAKQRPGQGPEWIGQIRPNSGNTYYNEKFKVKATLTVDTSSSTAYVDLSSLTSEDSAVYYCARYYYGFDYWGQGTTVTVSS VL: DVLMTQTPLSLPVSLGDQASISCRSSQSIVHSNGNTYLEWYLQKPGQSPKLLIYKVSNRFSGVPDRFSGSGSGTDFTLKISRVEAEDLGVYYCFQGSHLPWTFGGGTKLEIK | Kd [3]: 0.676 nM; EC50 (read off the curve) [4]: 0.07 nM
2 |  |  |  |  | binds |  |  | αNTSR1 (AKT2 Hu/Hu) 4 seco-DUBA (antibody, V domains shown, seco-DUBA payload conjugated (trimannosyl ADC); site of conjugation not given, Antibody-drug conjugate of the humanized antibody AKT2 HuHu with seco-DUBA; also called trimannosyl anti-NTSR1 ADC of AKT2 HuHu) VH: QVQLVQSGAEVKKPGASVKVSCKASGYAFTSSWIHWVRQAPGQGLEWMGQIRPNSGNTYYNEKFKVRVTMTRDTSTSTVYMELSSLRSEDTAVYYCARYHYGFDYWGQGTLVTVSS VL: DIVMTQTPLSLSVTPGQPASISCRSSQSIVHSNGNTYLEWYLQKPGQSPQLLIYKVSNRFSGVPDRFSGSGSGTDFTLKISRVEAEDVGVYYCFQGAHLPWTFGQGTKVEIK | 
3 |  |  |  |  |  | 98 | 64 | humanized 7C3 IMGT (7C3 HuHu) (antibody, V domains shown, Full-length antibody with human IgG1 / kappa constant regions (plasmids pTCAEDH 7C3 HUVH IgG1 and pTCAEDL 7C3 HUVL Kappa)) VH: QVQLVQSGAEVKKPGASVKVSCKASGYTFTSSWIHWVRQAPGQGLEWMGQIRPNSGNTYYNEKFKVRVTMTRDTSTSTVYMELSSLRSEDTAVYYCARYYYGFDYWGQGTLVTVSS VL: DIVMTQTPLSLSVTPGQPASISCRSSQSIVHSNGNTYLEWYLQKPGQSPQLLIYKVSNRFSGVPDRFSGSGSGTDFTLKISRVEAEDVGVYYCFQGSHLPWTFGQGTKVEIK | Kd [3]: 0.294 nM; EC50 (read off the curve) [4]: 0.03 nM
4 |  |  |  |  |  | 99 | 73 | humanized antibody 7C3 HuHd (antibody, V domains shown, Full-length antibody from the human Fc vectors) VH: QVQLVQSGAEVKKPGASVKVSCKASGYTFTSSWIHWVRQAPGQGLEWMGQIRPNSGNTYYNEKFKVRVTMTRDTSTSTVYMELSSLRSEDTAVYYCARYYYGFDYWGQGTLVTVSS VL: DIQMTQSPSSLSASVGDRVTITCRSSQSIVHSNGNTYLEWYQQKPGKAPKLLIYKVSNRFSGVPSRFSGSGSGTDFTLTISSLQPEDFATYYCFQGSHLPWTFGQGTKVEIK | 

The next lines start with the binder.

Row | Binder | EC50 (read off the curve) [1] [nM] | Kd (NTSR1 protein) [nM] | koff (NTSR1 protein) [s⁻¹] | kon (NTSR1 protein) [M⁻¹ s⁻¹] | binding result (NTSR1 on FaDu cells [2]) | % Flow binding (10 ug/ml) (NTSR1 on FaDu cells [5]) [%] | % Flow binding (1 ug/mL) (NTSR1 on FaDu cells [6]) [%] | other results
5 | mouse-human chimera antibody AKT2 (antibody, V domains shown, Mouse variable domains on human constant regions; also called chimera AKT2 mAb; αNTSR1 (AKT2)) VH: QVQLQQPGSVLVRPGASVKLSCKASGYAFTSSWIHWAKQRPGQGLEWIGQIRPNSGNTYYNEKFKVKATLTVDTSSSTAYVDLSSLTSEDSAVYYCARYHYGFDYWGQGTLVTVSS VL: DVLMTQTPLSLPVSLGDQASISCRSSQSIVHSNGNTYLEWYLQKPGQSPKLLIYKVSNRFSGVPDRFSGSGSGTDFTLKISRVEAEDLGVYYCFQGAHLPWTFGGGTKLEIK | 0.06 | 1.61 | 0.000656 | 407000 |  |  |  | 
6 | αNTSR1 (AKT2) 4 seco-DUBA (antibody, V domains shown, seco-DUBA payload conjugated (trimannosyl ADC); site of conjugation not given, Antibody-drug conjugate of the mouse-human chimera antibody AKT2 with seco-DUBA; also called trimannosyl anti-NTSR1 ADC of AKT2) VH: QVQLQQPGSVLVRPGASVKLSCKASGYAFTSSWIHWAKQRPGQGLEWIGQIRPNSGNTYYNEKFKVKATLTVDTSSSTAYVDLSSLTSEDSAVYYCARYHYGFDYWGQGTLVTVSS VL: DVLMTQTPLSLPVSLGDQASISCRSSQSIVHSNGNTYLEWYLQKPGQSPKLLIYKVSNRFSGVPDRFSGSGSGTDFTLKISRVEAEDLGVYYCFQGAHLPWTFGGGTKLEIK |  |  |  |  | binds |  |  | 
7 | humanized antibody AKT2 HuHd (antibody, V domains shown, Full-length humanized antibody; also called αNTSR1 (AKT2 Hu/Hd)) VH: QVQLVQSGAEVKKPGASVKVSCKASGYAFTSSWIHWVRQAPGQGLEWMGQIRPNSGNTYYNEKFKVRVTMTRDTSTSTVYMELSSLRSEDTAVYYCARYHYGFDYWGQGTLVTVSS VL: DIQMTQSPSSLSASVGDRVTITCRSSQSIVHSNGNTYLEWYQQKPGKAPKLLIYKVSNRFSGVPSRFSGSGSGTDFTLTISSLQPEDFATYYCFQGAHLPWTFGQGTKVEIK | 0.06 | 1.43 | 0.000657 | 461000 |  |  |  | 
8 | αNTSR1 (AKT2 Hu/Hd) 4 seco-DUBA (antibody, V domains shown, seco-DUBA payload conjugated (trimannosyl ADC); site of conjugation not given, Antibody-drug conjugate of the humanized antibody AKT2 HuHd with seco-DUBA; also called trimannosyl anti-NTSR1 ADC of AKT2 HuHd) VH: QVQLVQSGAEVKKPGASVKVSCKASGYAFTSSWIHWVRQAPGQGLEWMGQIRPNSGNTYYNEKFKVRVTMTRDTSTSTVYMELSSLRSEDTAVYYCARYHYGFDYWGQGTLVTVSS VL: DIQMTQSPSSLSASVGDRVTITCRSSQSIVHSNGNTYLEWYQQKPGKAPKLLIYKVSNRFSGVPSRFSGSGSGTDFTLTISSLQPEDFATYYCFQGAHLPWTFGQGTKVEIK |  |  |  |  | binds |  |  | 
9 | humanized antibody AKT2 HuHu (antibody, V domains shown, Full-length humanized antibody; also called αNTSR1 (AKT2 Hu/Hu)) VH: QVQLVQSGAEVKKPGASVKVSCKASGYAFTSSWIHWVRQAPGQGLEWMGQIRPNSGNTYYNEKFKVRVTMTRDTSTSTVYMELSSLRSEDTAVYYCARYHYGFDYWGQGTLVTVSS VL: DIVMTQTPLSLSVTPGQPASISCRSSQSIVHSNGNTYLEWYLQKPGQSPQLLIYKVSNRFSGVPDRFSGSGSGTDFTLKISRVEAEDVGVYYCFQGAHLPWTFGQGTKVEIK | 0.06 | 1.03 | 0.000808 | 788000 |  |  |  | 
